This passage reports fold change of affinity results from patent US20210388087A1.

B1: H183/L072 VL P95F (antibody, name in Kabat numbering, V domains shown)
VH: QVQLVESGGGLVQPGRSLRLSCAASGFTFSNAWMHWVRQAPGKGLEWVAQIKDKGNAYAAYYAPSVKGRFTISRDDSKNSIYLQMNSLKTEDTAVYYCHYVHYASASTVLPAFGVDAWGQGTTVTVSS
VL: DIVMTQSPLSLPVTPGEPASISCQASQELVHMNRNTYLHWYQQKPGQAPRLLIYKVSNRFPGVPDRFSGSGSGTDFTLKISRVEAEDVGVYYCAQGTSVFFTFGQGTKLEIK
B2: H183/L072 VL Q90W (antibody, name in Kabat numbering, V domains shown)
VH: B1 VH
VL: B1 VL with Q95W, F100P
B3: H183/L072 VL V94W (antibody, name in Kabat numbering, V domains shown)
VH: B1 VH
VL: B1 VL with V99W, F100P
B4: H183/L072 VL K50W (antibody, name in Kabat numbering, V domains shown)
VH: B1 VH
VL: B1 VL with K55W, F100P
B5: H183/L072 VL K50F (antibody, name in Kabat numbering, V domains shown)
VH: B1 VH
VL: B1 VL with K55F, F100P
B6: H183/L072 VL F96R (antibody, name in Kabat numbering, V domains shown)
VH: B1 VH
VL: B1 VL with F100P, F101R
B7: H183/L072 VL T92W (antibody, name in Kabat numbering, V domains shown)
VH: B1 VH
VL: B1 VL with T97W, F100P
B8: H183/L072 VL T97W (antibody, name in Kabat numbering, V domains shown)
VH: B1 VH
VL: B1 VL with F100P, T102W
B9: H183/L072 VL P95W (antibody, name in Kabat numbering, V domains shown)
VH: B1 VH
VL: B1 VL with F100W
B10: H183/L072 VL G91F (antibody, name in Kabat numbering, V domains shown)
VH: B1 VH
VL: B1 VL with G96F, F100P
B11: H183/L072 VL Q90F (antibody, name in Kabat numbering, V domains shown)
VH: B1 VH
VL: B1 VL with Q95F, F100P
B12: H183/L072 VL V51W (antibody, name in Kabat numbering, V domains shown)
VH: B1 VH
VL: B1 VL with V56W, F100P
B13: H183/L072 VL G91W (antibody, name in Kabat numbering, V domains shown)
VH: B1 VH
VL: B1 VL with G96W, F100P
B14: H183/L072 VL F96W (antibody, name in Kabat numbering, V domains shown)
VH: B1 VH
VL: B1 VL with F100P, F101W
B15: H183/L072 VL V51F (antibody, name in Kabat numbering, V domains shown)
VH: B1 VH
VL: B1 VL with V56F, F100P
B16: H183/L072 VL T31G (antibody, name in Kabat numbering, V domains shown)
VH: B1 VH
VL: B1 VL with T36G, F100P
B17: H183/L072 VL Y32T (antibody, name in Kabat numbering, V domains shown)
VH: B1 VH
VL: B1 VL with Y37T, F100P
B18: H183/L072 VL H34S (antibody, name in Kabat numbering, V domains shown)
VH: B1 VH
VL: B1 VL with H39S, F100P
B19: H183/L072 VL L33K (antibody, name in Kabat numbering, V domains shown)
VH: B1 VH
VL: B1 VL with L38K, F100P
B20: H183/L072 VL A25H (antibody, name in Kabat numbering, V domains shown)
VH: B1 VH
VL: B1 VL with A25H, F100P
B21: H183/L072 VL H34D (antibody, name in Kabat numbering, V domains shown)
VH: B1 VH
VL: B1 VL with H39D, F100P
B22: H183/L072 VL A25R (antibody, name in Kabat numbering, V domains shown)
VH: B1 VH
VL: B1 VL with A25R, F100P
B23: H183/L072 VL H34N (antibody, name in Kabat numbering, V domains shown)
VH: B1 VH
VL: B1 VL with H39N, F100P
B24: H183/L072 VL L33S (antibody, name in Kabat numbering, V domains shown)
VH: B1 VH
VL: B1 VL with L38S, F100P
B25: H183/L072 VL Q24E (antibody, name in Kabat numbering, V domains shown)
VH: B1 VH
VL: B1 VL with Q24E, F100P
B26: H183/L072 VL N28D (antibody, name in Kabat numbering, V domains shown)
VH: B1 VH
VL: B1 VL with N33D, F100P
B27: H183/L072 VL L33D (antibody, name in Kabat numbering, V domains shown)
VH: B1 VH
VL: B1 VL with L38D, F100P
B28: H183/L072 VL A25D (antibody, name in Kabat numbering, V domains shown)
VH: B1 VH
VL: B1 VL with A25D, F100P
B29: H183/L072 VL L27bN (antibody, name in Kabat numbering, V domains shown)
VH: B1 VH
VL: B1 VL with L29N, F100P
B30: H183/L072 VL H34K (antibody, name in Kabat numbering, V domains shown)
VH: B1 VH
VL: B1 VL with H39K, F100P
B31: H183/L072 VL H34Q (antibody, name in Kabat numbering, V domains shown)
VH: B1 VH
VL: B1 VL with H39Q, F100P
B32: H183/L072 VL R54N (antibody, name in Kabat numbering, V domains shown)
VH: B1 VH
VL: B1 VL with R59N, F100P
B33: H183/L072 VL A25K (antibody, name in Kabat numbering, V domains shown)
VH: B1 VH
VL: B1 VL with A25K, F100P
B34: H183/L072 VL H34G (antibody, name in Kabat numbering, V domains shown)
VH: B1 VH
VL: B1 VL with H39G, F100P
B35: H183/L072 VL Y32D (antibody, name in Kabat numbering, V domains shown)
VH: B1 VH
VL: B1 VL with Y37D, F100P
B36: H183/L072 VL Y32E (antibody, name in Kabat numbering, V domains shown)
VH: B1 VH
VL: B1 VL with Y37E, F100P
B37: H183/L072 VL H34T (antibody, name in Kabat numbering, V domains shown)
VH: B1 VH
VL: B1 VL with H39T, F100P
B38: H183/L072 VL H34E (antibody, name in Kabat numbering, V domains shown)
VH: B1 VH
VL: B1 VL with H39E, F100P
B39: H183/L072 VL F55A (antibody, name in Kabat numbering, V domains shown)
VH: B1 VH
VL: B1 VL with F60A, F100P
B40: H183/L072 VL Y32S (antibody, name in Kabat numbering, V domains shown)
VH: B1 VH
VL: B1 VL with Y37S, F100P
B41: H183/L072 VL T31N (antibody, name in Kabat numbering, V domains shown)
VH: B1 VH
VL: B1 VL with T36N, F100P
B42: H183/L072 VL A25E (antibody, name in Kabat numbering, V domains shown)
VH: B1 VH
VL: B1 VL with A25E, F100P
B43: H183/L072 VL T31H (antibody, name in Kabat numbering, V domains shown)
VH: B1 VH
VL: B1 VL with T36H, F100P
B44: H183/L072 VL Y32K (antibody, name in Kabat numbering, V domains shown)
VH: B1 VH
VL: B1 VL with Y37K, F100P

Numbering of substitutions follows the chain as printed. Numbers in names are those of the source.

Chain of Human CD3eg linker (human) (chain, as listed by the source limits assumed): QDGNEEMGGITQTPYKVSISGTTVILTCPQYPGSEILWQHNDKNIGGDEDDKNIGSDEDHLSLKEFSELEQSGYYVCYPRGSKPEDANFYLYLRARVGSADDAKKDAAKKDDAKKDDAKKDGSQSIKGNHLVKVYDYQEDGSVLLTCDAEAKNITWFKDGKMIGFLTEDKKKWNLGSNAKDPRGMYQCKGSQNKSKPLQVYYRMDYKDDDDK
Chain of Human CD137 ECD (human) (chain, as listed by the source limits assumed): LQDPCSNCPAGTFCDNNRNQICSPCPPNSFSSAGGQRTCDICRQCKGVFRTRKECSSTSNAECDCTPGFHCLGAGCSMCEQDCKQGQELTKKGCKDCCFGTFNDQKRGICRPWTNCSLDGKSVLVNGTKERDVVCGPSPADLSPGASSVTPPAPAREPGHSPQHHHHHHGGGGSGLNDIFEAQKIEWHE

The first experiment concerns the target Human CD3eg linker (human). Description: SPR; fold vs parent H183/L072.
For B1, the fold change of affinity amounted to 0 fold.
With B2, the fold change of affinity turned out to be 0 fold.
For B3, the fold change of affinity is 0 fold.
B4: the fold change of affinity is 0 fold.
With B5, the fold change of affinity amounted to 0 fold.
With B6, the fold change of affinity was 0 fold.
On to B7, for which the fold change of affinity turned out to be 0 fold.
As to B8, the fold change of affinity was 0 fold.
The same measure, in the same setting: the same measure for B9: 0 fold.
In the case of B10, the fold change of affinity stood at 0 fold.
In the case of B11, the fold change of affinity is 0 fold.
As to B12, the fold change of affinity was 0 fold.
As to B13, the fold change of affinity was 0 fold.
For B14, the fold change of affinity came out at 0 fold.
Same read-out and setting: the figure for B15 is 0 fold.

Another experiment concerns the target Human CD137 ECD (human). Description: Biacore SPR, vs parent H183/L072.
Regarding B16, the fold change of affinity turned out to be 0 fold.
For B17, the fold change of affinity was determined as 0 fold.
The same measure, in the same setting: the figure for B18 is 0 fold; for B19 it is 0 fold.
As to B20, the fold change of affinity came to 0 fold.
As to B21, the fold change of affinity was 0 fold.
With B22, the fold change of affinity came to 0 fold.
For B23, the fold change of affinity turned out to be 0 fold.
For the molecule B24, the fold change of affinity was determined as 0 fold.
Regarding B25, the fold change of affinity was determined as 0 fold.
Take B26: the fold change of affinity turned out to be 0 fold.
On to B27, for which the fold change of affinity amounted to 0 fold.
For the molecule B28, the fold change of affinity was determined as 0 fold.
Turning to B29, the fold change of affinity was determined as 0 fold.
For the molecule B30, the fold change of affinity is 0 fold.
Regarding B31, the fold change of affinity turned out to be 0 fold.
Turning to B32, the fold change of affinity was 0.06 fold.
The same measure, in the same setting: the same measure for B33: 0 fold; for B34: 0 fold; for B35: 0 fold.
In the case of B36, the fold change of affinity stood at 0 fold.
Take B37: the fold change of affinity amounted to 0 fold.
As for B38, the fold change of affinity turned out to be 0 fold.
Same read-out and setting: the figure for B39 is 0 fold; for B40 it is 0 fold.
Take B41: the fold change of affinity turned out to be 0 fold.
Consider B42, for which the fold change of affinity was 0 fold.
The same measure, in the same setting: the same measure for B43: 0 fold.
As to B44, the fold change of affinity is 0 fold.
